The values that follow come from patent US8586056.

In test [1] the target is Env of the 16055 virus (HIV-1 clade C, isolate 16055).
Test [2] addresses 16936V1-3-55 gp160 full length Env (HIV-1 (16936 with 16055 V1-3 loops)).
Test [3] deals with HIV-1 Env 16936 (HIV-1, isolate 16936).
Test [4] deals with HIV-1 clade C 16055 gp120-Histag, EF117268_gp120 (HIV-1 clade C, isolate 16055). Briefly: Octet.
For test [5] the target is unchanged. The test can be described thus: Octet (biolayer interferometry).
The target in test [6] is YU2.
The target of test [7] is ZM214 (HIV-1).
For test [8], the target named is Env of the 16055 virus (HIV-1 clade C, isolate 16055). The source holds these as a separate data set.
Test [9] deals with JRFL (HIV-1).
The target in test [10] is SF162 (HIV-1).
For test [11], the target named is Du172 (HIV-1).
Test [12] concerns the target HIV-1 Env 16936 (HIV-1, isolate 16936). The source holds these as a separate data set.
The target of test [13] is Zm197 (HIV-1).
The target of test [14] is JRCSF.
Test [15] addresses CAP45 (HIV-1).
The target in test [16] is Zm109F (AY424138) (HIV-1).
Test [17] deals with Zm135 (HIV-1).
Test [18] concerns the target 0013095 (EF117267) (HIV-1).
Test [19] deals with DU422 (HIV-1).
Test [20] concerns the target QH0692 (HIV-1).
Test [21] deals with Env of the 16055 virus (HIV-1 clade C, isolate 16055). The test can be described thus: shed gp120 capture ELISA.
The target of test [22] is JRCSF. Briefly: shed gp120 capture ELISA.
The next test deals with 0013095 gp140. Briefly: ELISA on recombinant gp140.
Test [23] addresses HIV-1 clade C 16055 gp140-Histag, EF117268_gp140 (HIV-1 clade C, isolate 16055). Briefly: ELISA on recombinant gp140.
Test [24] deals with 16055 gp140 trimer with c-terminus trimerization domain GCN4 (HIV-1 clade C, isolate 16055). The test can be described thus: ELISA on recombinant gp140.
Test [25] has as its target HIV-1 clade C 16055 gp140-Histag, EF117268_gp140 (HIV-1 clade C, isolate 16055). The test can be described thus: ELISA on recombinant gp140. The source holds these as a separate data set.
In test [26] the target is 16936-16055V123loop (HIV-1 (16936 backbone with 16055 V1, V2 and V3 loops)). Briefly: ELISA.
Test [27] has as its target Env of the 16055 virus (HIV-1 clade C, isolate 16055). Briefly: ELISA; same curves as panel 16055-2 of FIG. 3A.
The target of test [28] is YU2. The source holds these as a separate data set.
Test [29] concerns the target Env of the 16055 virus (HIV-1 clade C, isolate 16055). This is another data set of the same source.
The target in test [30] is Du172 (HIV-1). This is another data set of the same source.
The target in test [31] is Zm197 (HIV-1). The source holds these as a separate data set.
In test [32] the target is JRCSF. The source holds these as a separate data set.
In test [33] the target is CAP45 (HIV-1). The source holds these as a separate data set.
Test [34] addresses Zm135 (HIV-1). This is another data set of the same source.
Test [35] concerns the target DU422 (HIV-1). This is another data set of the same source.
Test [36] has as its target BG505_gp120 (HIV-1 clade A, BG505). The test can be described thus: ELISA on BG505 gp120.
The target of test [37] is ZM214 (HIV-1). The source holds these as a separate data set.
In test [38] the target is JRFL (HIV-1). The source holds these as a separate data set.
The target in test [39] is SF162 (HIV-1). This is another data set of the same source.
Test [40] deals with QH0692 (HIV-1). This is another data set of the same source.

Read-outs that look alike come from different tables or passages of the source.

In the case of 4E10 (antibody), the neutralization IC50 in test [1] turned out to be 7.02 µg/mL; in [2], 2.68 µg/mL; in test [3], 3.85 µg/mL.

In test [4], A32 (antibody) displayed a Kd of 5.2 nM, a koff of 8.23e-05 s⁻¹ and an on-rate (kon) of 15600 M⁻¹ s⁻¹.

In [4], F105 (antibody) yielded a koff of 0.00169 s⁻¹ and a kon of 8430 M⁻¹ s⁻¹. This substance registered a Kd in test [5] of 200 nM.

For PG9 (antibody), the neutralization IC50 is under 0.01 µg/mL with YU2 [6]; 9.76 µg/mL with PVO (HIV-1); over 25 µg/mL with ZM214 (HIV-1) [7]; under 0.01 µg/mL in test [8]; over 25 µg/mL with JRFL (HIV-1) [9]; over 25 µg/mL in the test with SF162 (HIV-1) [10]. For the same substance, the neutralization IC50 with 25710 (EF117271) (HIV-1) was under 0.01 µg/mL; with 6535 (AY835438) (HIV-1), 0.6 µg/mL; in the test with Du172 (HIV-1) [11], 0.49 µg/mL; with Bal (HIV-1), under 0.01 µg/mL; with Zm197 (HIV-1) [13], 0.61 µg/mL; with JRCSF [14] it was under 0.01 µg/mL. For the same substance, the neutralization IC50 with CAP45 (HIV-1) [15] was under 0.01 µg/mL; in the test with AC10 (HIV-1), 0.05 µg/mL; in test [16], 0.46 µg/mL; in the test with Zm135 (HIV-1) [17] it was 17.6 µg/mL; in test [18], under 0.01 µg/mL; with 25925 (EF117273) (HIV-1) it was 0.15 µg/mL. For the same substance, the neutralization IC50 in the test with DU422 (HIV-1) [19] was 1.64 µg/mL; with QH0692 (HIV-1) [20], over 25 µg/mL; with CAAN (AY835452) (HIV-1), 11.9 µg/mL; in test [2], 0.03 µg/mL; in [3], over 25 µg/mL; with YU2 [28], 1.73 µg/mL. Besides, the neutralization IC50 in the test with RW020 (HIV-1) was 0.05 µg/mL; with MulV it was over 25 µg/mL; in test [29] it was 0.01 µg/mL; with Du172 (HIV-1) [30], 0.24 µg/mL; with Q842 (HIV-1), 0.02 µg/mL; with REJ0451 (HIV-1) it was 0.001 µg/mL. The neutralization IC50 with Zm197 (HIV-1) [31] was 0.287 µg/mL; with JRCSF [32], 0.002 µg/mL; with WIT04160 (HIV-1), 0.005 µg/mL; in the test with UG037 (HIV-1), 0.02 µg/mL; in the test with CAP45 (HIV-1) [33], 0.003 µg/mL; with Zm135 (HIV-1) [34], over 25 µg/mL. The same substance gave a neutralization IC50 in the test with DU422 (HIV-1) [35] of 0.178 µg/mL. Moreover, in [12], the neutralization IC50 (virus printed '6936') was over 25 µg/mL. Moreover, the EC50 (read off the curve) was 0.3 µg/mL in test [21]; 0.3 µg/mL with JRCSF [22]; 0.9 µg/mL with 0013095 gp140; 0.1 µg/mL in [23]; 0.1 µg/mL in test [24]; 0.2 µg/mL in test [25]. Besides, the values for the EC50 (read off the curve) in [26], in test [27] and in test [36] were 0.2 µg/mL, 0.3 µg/mL and 0.04 µg/mL, respectively.

Regarding PG16 (antibody), the neutralization IC50 is under 0.01 µg/mL in the test with YU2 [6]; 21.9 µg/mL in the test with PVO (HIV-1); over 25 µg/mL with ZM214 (HIV-1) [7]; over 25 µg/mL in the test with JRFL (HIV-1) [9]; over 25 µg/mL in the test with SF162 (HIV-1) [10]; under 0.01 µg/mL in the test with 25710 (EF117271) (HIV-1). Also, the neutralization IC50 with 6535 (AY835438) (HIV-1) is over 25 µg/mL; in the test with Du172 (HIV-1) [11] it was 0.06 µg/mL; with Bal (HIV-1), under 0.01 µg/mL; with Zm197 (HIV-1) [13] it was 1.68 µg/mL; in the test with JRCSF [14], under 0.01 µg/mL; with CAP45 (HIV-1) [15] it was under 0.01 µg/mL. The neutralization IC50 in the test with AC10 (HIV-1) is under 0.01 µg/mL; in test [16] it was over 25 µg/mL; with Zm135 (HIV-1) [17], over 25 µg/mL; in test [18], under 0.01 µg/mL; in the test with 25925 (EF117273) (HIV-1), 0.11 µg/mL; with DU422 (HIV-1) [19] it was 2.34 µg/mL. Further, the neutralization IC50 with QH0692 (HIV-1) [20] is over 25 µg/mL; with CAAN (AY835452) (HIV-1), 12.9 µg/mL; in [1], under 0.01 µg/mL; in test [2], 0.06 µg/mL; in [3], over 25 µg/mL; in the test with YU2 [28] it was 0.114 µg/mL. The neutralization IC50 with RW020 (HIV-1) is 0.037 µg/mL; with MulV, over 25 µg/mL; in test [29], 0.01 µg/mL; with Du172 (HIV-1) [30] it was 0.023 µg/mL; with Q842 (HIV-1), 0.009 µg/mL; with REJ0451 (HIV-1) it was 0.004 µg/mL. The neutralization IC50 with Zm197 (HIV-1) [31] was 0.765 µg/mL; with JRCSF [32] it was 0.001 µg/mL; with WIT04160 (HIV-1), 0.002 µg/mL; in the test with UG037 (HIV-1) it was 0.01 µg/mL; with CAP45 (HIV-1) [33] it was 0.002 µg/mL; in the test with DU422 (HIV-1) [35], 0.042 µg/mL. For the same substance, the neutralization IC50 (virus printed '6936') in test [12] was over 25 µg/mL. Moreover, the EC50 (read off the curve) in test [23] was 0.08 µg/mL; in test [24] it was 0.08 µg/mL; in test [25], 0.1 µg/mL; in [36], 0.2 µg/mL.

Consider VRC01 (antibody), for which, in [4], the koff came to 0.000294 s⁻¹ and the kon was 4780 M⁻¹ s⁻¹. The substance also came in with a Kd in test [5] of 61 nM.

Consider b6 (antibody), for which, in test [4], the Kd amounted to 7.7 nM, the off-rate (koff) was found to be 8.66e-05 s⁻¹ and the kon was 11000 M⁻¹ s⁻¹.

With b12 (antibody), the neutralization IC50 in [1] is over 25 µg/mL; in test [2] it was 20.5 µg/mL; in test [3] it was over 25 µg/mL; with YU2 [28], 2.18 µg/mL; with RW020 (HIV-1), 10 µg/mL; with ZM214 (HIV-1) [37], 13.6 µg/mL. In addition, the neutralization IC50 with MulV is over 25 µg/mL; with JRFL (HIV-1) [38], 0.022 µg/mL; with SF162 (HIV-1) [39], 0.07 µg/mL; in the test with Du172 (HIV-1) [30], 0.3 µg/mL; with Q842 (HIV-1), over 25 µg/mL; with REJ0451 (HIV-1), 5.92 µg/mL. In addition, the neutralization IC50 was over 25 µg/mL with Zm197 (HIV-1) [31]; 0.096 µg/mL in the test with JRCSF [32]; 8.58 µg/mL with WIT04160 (HIV-1); over 25 µg/mL in the test with UG037 (HIV-1); 0.37 µg/mL in the test with CAP45 (HIV-1) [33]; over 25 µg/mL with Zm135 (HIV-1) [34]. Besides, the neutralization IC50 with DU422 (HIV-1) [35] was 0.464 µg/mL; with QH0692 (HIV-1) [40] it was 0.97 µg/mL. The koff in test [4] stood at 0.00107 s⁻¹. This substance came in with an association rate constant (kon) in [4] of 8790 M⁻¹ s⁻¹. Besides, the Kd in [5] was 120 nM. In test [36], this substance yielded a concentration for a half-maximal effect (EC50 (read off the curve)) of 0.03 µg/mL.
